Experimental data: US20140161875A1 (KATHOLIEKE UNIVERSITEIT LEUVEN, published 2014)

Legend:
[1] = biological target: T1, recombinant HIS-tagged tau obtained from E. coli (UniProt P10636-8 1-441, limits assumed); assay: Western blot
T1 construct: also called E. coli-produced recombinant tau; recombinant non-phosphorylated tau purified from bacteria
Description: FIG. 2: Selectivity for tau aggregates and phosphorylation dependency of anti-tau mAbs of the invention. A) Western blot analysis of recombinant HIS-tagged tau obtained from E. coli and protein extracts obtained from control and humanized yeast strains using the commercial pan-tau antibody Tau-5 and ADx210 mAb as indicated. The number between brackets refers to the exposure time. The solid bar refers to high molecular weight and oligomeric tau and the small arrow in the picture of ADx210 to a presumable tau dimer. B) Western blot analysis of purified tau obtained from the pho85Δ strain before and after treatment with shrimp alkaline phosphatase (SAP) following different time intervals as indicated. Recombinant HIS-tagged tau obtained from E. coli served as control. The pan-tau antibody Tau-5, the phosphorylation-specific antibody AT270, and the antibody BT2 recognizing non-phosphorylated tau, were used in addition to the novel mAbs ADx215 and ADx210.
The phosphorylation specificity was initially tested on extracts obtained from the humanized wild type yeast strain and its congenic mds1Δ and pho85Δ mutants that display reduced and increased tau phosphorylation. Recombinant tau produced by E. coli served as control.

[2] = biological target: endogenous mouse tau (mouse, UniProt P10637-2 2-430, limits assumed); assay: Western blot of mouse brain extracts
endogenous mouse tau, sequence (P10637 other isoform, or with tags, fused parts or gaps limits assumed): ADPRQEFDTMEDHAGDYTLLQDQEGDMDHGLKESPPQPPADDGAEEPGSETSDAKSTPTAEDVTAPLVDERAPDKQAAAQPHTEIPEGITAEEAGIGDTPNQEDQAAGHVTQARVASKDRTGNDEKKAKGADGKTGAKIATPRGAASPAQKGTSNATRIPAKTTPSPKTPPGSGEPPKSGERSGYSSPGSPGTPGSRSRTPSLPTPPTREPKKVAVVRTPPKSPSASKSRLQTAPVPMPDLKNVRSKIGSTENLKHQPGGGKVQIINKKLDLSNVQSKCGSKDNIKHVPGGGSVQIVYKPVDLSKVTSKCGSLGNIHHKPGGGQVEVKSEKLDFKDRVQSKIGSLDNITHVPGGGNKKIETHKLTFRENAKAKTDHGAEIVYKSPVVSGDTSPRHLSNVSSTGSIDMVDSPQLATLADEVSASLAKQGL
Description: FIG. 3: Analysis of the novel mAbs on samples of transgenic mice and human brain. A) Western blot analysis of brain extracts from control mice (FVB), knock-out mice and transgenic (Tg) mice expressing a clinical mutant of human tau (Tau-P301L). The age of the mice is indicated between brackets. The arrow on the second blot indicates high molecular weight tau complexes. The antibodies used are ADx215 (YT1.15), ADx210 (YT1.10) and the commercial phosphorylation-specific antibody AT100 (exposure time of 30 min for ADx210 (YT1.10) and AT100, and 30 sec for ADx215 (YT1.15)). B) Tau epitope sequence recognized by ADx201 (YT1.1) and ADx215 (YT1.15). C) Western blot analysis of brain extracts from brain extracts obtained from a healthy person (non-AD) and an AD patient using the Mab ADx215 (YT1.15) (exposure time 2 min.). The brain regions from which the extracts were prepared are indicated. As control served brain extracts obtained from the hippocampus and cortex of the tau Tg mice Tau22. The arrow indicates high molecular weight tau complexes present in samples from AD brain. […]
Furthermore, the high affinity Mab ADx215 (YT1.15) specifically detected high molecular weight tau complexes in brain extracts of both Tg mice (Fig. A, C) and a late stage AD patient (data provided by L. Buée, Inserm U837, U. Lille, France; Fig. C).

B1: ADx210 monoclonal antibody (hybridoma LMBP 8347CB) (antibody, V domains shown)
VH: VQLQESGGGLVQPGGSRKLSCAASGFTFSNFGMHWVRQAPDKGLEWVAYITSGSSSIYYADTVKGRFTISRDNPKNTLFLQMTSLRSEDTAMYYCARSVPYGYGLFDYWGRGTTLTVSS
VL: DVLMTQIPVSLSVSLGDQASISCRSSESIVHSSGKTYLEWYLQKPGQSPKLLIYEVSNRFSGVPDRFSGSGSGTDFTLKISRVEAEDLGVYYCFQGSHVPWTFGGGTKLEIKR
notes: Mouse hybridoma mAb (BALB/C immunised with yeast-purified tau); constant regions are not; also called YT1.10; IGH-593
[1]
  binding result: no binding
[2]
  binding result: no binding

B2: ADx215 monoclonal antibody (hybridoma LMBP 9679CB) (antibody, IgG1, V domains shown)
VH: EVQLVESGGDLVKPGGSLKLSCAASGFNFRSYGMSWVRQTPDKRLEWVATISSGGNYTYYPDSVKGRFTISRDNAKNILYLQMSSLNSEDTALYYCTYSFYGAFDYWGQGTTLTVSS
VL: DVLMTQTPLSLPVSLGDQASISCRSSQNILHSNGNTYLEWYLQKPGQSPKLLIYKVSSRFSGVPDRFSGSGSGTDFTLKITRVEAEDLGVYYCFQGSLVPWTFGGGTKLEIRR
notes: also called YT1.15
[2]
  binding result: no binding
